Laboratory results: publication PMC6329447
Numbering of substitutions follows the chain as printed.

Legend:
[1] = target: zebrafish Olig1, mammalian two-hybrid fusion (zebrafish); assay: two-hybrid
[2] = target: zebrafish Olig2, mammalian two-hybrid fusion (zebrafish); assay: two-hybrid
Olig1 [3] = target: T1, Olig1 (Danio rerio (zebrafish), UniProt Q5QJR2 1-235); assay: EMSA
T1 sequence: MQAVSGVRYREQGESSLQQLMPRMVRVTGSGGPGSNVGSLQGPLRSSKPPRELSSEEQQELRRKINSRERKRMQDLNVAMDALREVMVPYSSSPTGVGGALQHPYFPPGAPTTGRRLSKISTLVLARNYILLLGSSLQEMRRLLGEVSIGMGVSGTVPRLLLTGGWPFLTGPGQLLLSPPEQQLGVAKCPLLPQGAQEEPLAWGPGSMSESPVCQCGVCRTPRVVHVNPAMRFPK

Sox10 [4] = target: T2, Sox10 (Danio rerio (zebrafish), UniProt Q90XD1 1-485); assay: EMSA
Sox10 [5] = target: T2, Sox10; assay: competition
Olig1 [6] = target: T1, Olig1; assay: competition

zebrafish Olig1, mammalian two-hybrid fusion (natural protein)
fold increase of luciferase activity [1]: 8 fold | fold increase of luciferase activity [2]: 8 fold

B1: EbS2 (dsDNA)
DNA 1: CAAGTCGGGGCAGATGTGGACTAGAACAATAGCAGCTCC
DNA 2: GGAGCTGCTATTGTTCTAGTCCACATCTGCCCCGACTTG
binding result (Olig1 [3]): binds | binding result (Sox10 [4]): binds

B2: EbS2mut (dsDNA)
DNA 1: B1 DNA 1 with A25G, A26C, A28G, A29C
DNA 2: B1 DNA 2 with T11G, T12C, T14G, T15C
binding result (Sox10 [5]): no binding

B3: EbmutS2 (dsDNA)
DNA 1: CAAGTCGGGGTTGTAATGGACTAGAACAATAGCAGCTCC
DNA 2: GGAGCTGCTATTGTTCTAGTCCATTACAACCCCGACTTG
binding result (Olig1 [6]): no binding
